The values that follow come from paper PMC3604701.

pKd: −log10 of the molar value. Where two headings read alike, the source gives them in different places.

The target of test [1] is LSD1 (residues 151–852), lysine-specific demethylase 1 (human) (UniProt O60341). Kind of test: ITC.
Test [2] shares this target. Kind of test: ITC. The source holds these as a separate data set. (Isothermal titration calorimetry measures the heat released or taken up as one component is titrated into another.)
Test [3] has the same target. Kind of test: ITC. The source holds these as a separate data set.
Test [4] has the same target. Kind of test: ITC. The source holds these as a separate data set.
Test [5] has the same target. Kind of test: ITC. This is another data set of the same source.
Test [6] shares this target. Kind of test: ITC. The source holds these as a separate data set.
The target is the same in test [7]. Kind of test: ITC. This is another data set of the same source.
Test [8] shares this target. Kind of test: ITC. The source holds these as a separate data set.
Test [9] has the same target. Kind of test: ITC. The source holds these as a separate data set.
Test [10] has the same target. Kind of test: ITC. This is another data set of the same source.
The target is the same in test [11]. Kind of test: ITC. This is another data set of the same source.
Test [12] shares this target. Kind of test: ITC. This is another data set of the same source.
Test [13] shares this target. Kind of test: ITC. This is another data set of the same source.
Test [14] has as its target CoREST (RCOR1) residues 286-482 (linker region + SANT2 domain) (UniProt Q9UKL0). Kind of test: SPR. The settings on record: pH 7.4; no added salt; not stated numerically; 50 mM sodium phosphate.
Test [15] shares this target. Kind of test: ITC. To be noted: pH 7.4, 25 °C, no added salt, not stated numerically.
Test [16] has the same target. Kind of test: ITC. To be noted: pH 7.4, no added salt, not stated numerically, 50 mM sodium phosphate.
The target is the same in test [17]. Kind of test: ITC. The settings on record: pH 7.4; 25 °C; no added salt; not stated numerically; 50 mM sodium phosphate.

UniProt Q9UKL0, sequence (Q9UKL0 whole entry, the tested form may be a part): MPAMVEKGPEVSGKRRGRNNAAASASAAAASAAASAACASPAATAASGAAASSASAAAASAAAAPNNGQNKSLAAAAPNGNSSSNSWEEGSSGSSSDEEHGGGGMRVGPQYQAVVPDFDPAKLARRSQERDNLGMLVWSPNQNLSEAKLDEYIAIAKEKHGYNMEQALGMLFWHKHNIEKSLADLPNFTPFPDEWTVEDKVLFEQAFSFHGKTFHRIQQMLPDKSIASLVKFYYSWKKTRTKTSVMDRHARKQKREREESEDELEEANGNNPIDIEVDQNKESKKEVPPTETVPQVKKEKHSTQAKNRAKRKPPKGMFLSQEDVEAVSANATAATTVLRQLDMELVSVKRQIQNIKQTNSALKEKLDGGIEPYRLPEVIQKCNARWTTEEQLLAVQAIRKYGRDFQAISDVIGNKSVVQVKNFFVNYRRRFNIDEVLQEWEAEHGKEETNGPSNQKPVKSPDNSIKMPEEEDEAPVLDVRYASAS

As usually defined, the pKd is −log10 of the Kd, conventionally taken in molar units. What is called stoichiometry N is the number of molecules, sites or subunits per partner or assembly. “CoREST^286–482 (linker region and SANT2 domain) (domain or fragment)”: the negative logarithm of the Kd (pKd) in [1] was 8.07; in test [2], 7.67; in [3], 7.76; in [4], 8.10; in [5], 8.50; in test [6], 7.80. Moreover, the negative-log Kd (pKd) is 8.23 in test [7]; 8.38 in test [8]; 8.17 in test [9]; 8.43 in test [10]; 7.66 in [11]; 7.93 in test [12]. The pKd in test [13] is 8.12. The dH (ΔHcal) was -10.9 kcal/mol in [1]; -12.6 kcal/mol in [2]; -19.5 kcal/mol in test [3]; -17.4 kcal/mol in [7]; -15.2 kcal/mol in test [12]. Further, the stoichiometry N turned out to be 0.92 in test [1]; 0.93 in [2]; 1.11 in test [3]; 0.97 in test [4]; 1.01 in [5]; 1.14 in test [6]. Besides, the stoichiometry N in [7] stood at 0.91; in [8] it was 0.9; in [9], 1; in [10] it was 1.03; in test [11] it was 0.99; in test [12] it was 1.01. This substance had a stoichiometry N in test [13] of 1. Besides, the dH is -20.2 kcal/mol in test [4]; -12.1 kcal/mol in [5]; -21.3 kcal/mol in [6]; -8.56 kcal/mol in [8]; -12.9 kcal/mol in test [9]; -16.1 kcal/mol in test [10]. Moreover, the figures for the dH in [11] and in [13] were -4.24 kcal/mol and -15.6 kcal/mol, respectively. In [6], the Ka turned out to be 6.29e+07 M⁻¹.
Broadly, the koff is a measure of how fast the partners let go of each other. The term kon denotes a measure of how fast the partners come together. Take “LSD1 (KDM1A, lysine-specific histone demethylase 1) residues 151-852”: in test [14], the koff came out at 7.78e-05 s⁻¹. Further, the kon in test [14] turned out to be 56300 M⁻¹ s⁻¹. For the same substance, the ΔG is -10.1 kcal/mol in test [15] (50 mM ACES); -10.9 kcal/mol in [15] (50 mM HEPES); -11.2 kcal/mol in test [15] (50 mM PIPES); -10.8 kcal/mol in [15] (50 mM Tris); -10.6 kcal/mol in [15] (50 mM sodium phosphate); -10.1 kcal/mol in [16] (15 °C). Besides, the ΔG was -10.6 kcal/mol in [16] (25 °C), -11.7 kcal/mol in [16] (30 °C), -11.4 kcal/mol in [16] (35 °C) and -11.6 kcal/mol in [17]. Moreover, the ΔHcal in [15] (50 mM ACES) was -12.6 kcal/mol; in [15] (50 mM HEPES), -15.2 kcal/mol; in test [15] (50 mM PIPES), -17.4 kcal/mol; in test [15] (50 mM Tris), -10.9 kcal/mol; in [15] (50 mM sodium phosphate), -19.5 kcal/mol. In addition, in [16] (25 °C), the Ka is 6.29e+07 M⁻¹. In addition, the ΔH in [16] (25 °C) was -21.3 kcal/mol; in [17], -12.1 kcal/mol.
As for “linker region^293–380 of CoREST (domain or fragment)”, in test [6], the negative-log Kd (pKd) is 8.11, the dH was -13.5 kcal/mol and the stoichiometry N came out at 0.96.
